In patent publication US20250320281A1:

What was measured:
Assay in all cases: cell-based or functional assay
[1] = target: HIV-1 Env of isolate 92TH021 (subtype AE) (HIV-1)
[2] = target: HIV-1 Env of isolate MGRM-AG-005 (subtype AG) (HIV-1)
[3] = target: HIV-1 Env of isolate MGRM-Chronic-B-023 (subtype B) (HIV-1)
[4] = target: HIV-1 Env of isolate MGRM-Chronic-B-003 (subtype B) (HIV-1)
[5] = target: HIV-1 Env of isolate MGRM-AG-002 (subtype AG) (HIV-1)
[6] = target: HIV-1 Env of isolate MG RM-D-005 (HIV-1)
[7] = target: HIV-1 Env of pseudovirus isolate MGRM-G-028 (HIV-1)
[8] = target: HIV-1 Env of isolate MG RM-D-002 (HIV-1)
[9] = target: aMLV envelope, on pseudovirus (negative control virus)
[10] = target: HIV-1 Env of isolate MGRM-A-011 (subtype A) (HIV-1)
[11] = target: HIV-1 Env of isolate MGRM-AG-013 (subtype AG) (HIV-1)
[12] = target: HIV-1 Env of isolate 6535.3 (HIV-1)
[13] = target: HIV-1 Env of isolate MGRM-A-013 (subtype A) (HIV-1)
[14] = target: HIV-1 Env of isolate JRFL (subtype B) (HIV-1)
[15] = target: HIV-1 Env of isolate THR0.18 (subtype B) (HIV-1)
[16] = target: HIV-1 Env of isolate 92UG037 (HIV-1)
[17] = target: HIV-1 Env of isolate MG RM-D-012 (HIV-1)
[18] = target: HIV-1 Env of isolate 98CN006 (HIV-1)
[19] = target: HIV-1 Env of isolate NL43 (subtype B) (HIV-1)
[20] = target: HIV-1 Env of isolate 92UG046 (HIV-1)
[21] = target: HIV-1 Env of isolate MGRM-AE-001 (subtype AE) (HIV-1)
[22] = target: HIV-1 Env of isolate 92UG031 (HIV-1)
[23] = target: HIV-1 Env of isolate MGRM-A-012 (subtype A) (HIV-1)
[24] = target: HIV-1 envelope glycoprotein (Env) of isolate MGRM-C-006 (HIV-1)
[25] = target: HIV-1 Env of isolate MGRM-Chronic-B-020 (subtype B) (HIV-1)
[26] = target: HIV-1 Env of isolate MGRM-C-028 (HIV-1)
[27] = target: HIV-1 Env of isolate PVO.4 (subtype B pseudovirus) (HIV-1)
[28] = target: HIV-1 Env of isolate CAAN.A2 (subtype B pseudovirus) (HIV-1)
[29] = target: HIV-1 Env of isolate MGRM-D-024 (pseudovirus) (HIV-1)
[30] = target: HIV-1 Env of isolate MGRM-D-001 (pseudovirus) (HIV-1)
[31] = target: HIV-1 93IN905 envelope glycoprotein (Env) on pseudovirus (HIV-1)
[32] = target: HIV-1 Env of isolate MGRM-G-015 (HIV-1)

4980_N08 (PGT-143) (antibody), sequence (VH): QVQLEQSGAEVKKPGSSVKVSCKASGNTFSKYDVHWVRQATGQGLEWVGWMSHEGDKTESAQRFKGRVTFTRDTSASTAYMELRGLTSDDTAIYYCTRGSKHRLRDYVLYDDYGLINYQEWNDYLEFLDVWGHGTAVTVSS
4980_N08 (PGT-143) (antibody), sequence (VL): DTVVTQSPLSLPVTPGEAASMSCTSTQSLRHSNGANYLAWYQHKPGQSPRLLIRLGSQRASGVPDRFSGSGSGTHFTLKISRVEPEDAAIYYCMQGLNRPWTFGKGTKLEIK
5329_C19 (PGT-136) (antibody), sequence (VH): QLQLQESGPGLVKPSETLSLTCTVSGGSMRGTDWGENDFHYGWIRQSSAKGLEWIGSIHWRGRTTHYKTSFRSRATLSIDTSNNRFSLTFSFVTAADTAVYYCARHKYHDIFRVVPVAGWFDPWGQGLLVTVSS
5329_C19 (PGT-136) (antibody), sequence (VL): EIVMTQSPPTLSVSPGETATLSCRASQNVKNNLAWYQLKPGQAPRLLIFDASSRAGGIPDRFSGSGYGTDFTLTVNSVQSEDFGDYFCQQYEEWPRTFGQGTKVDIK
5345_I01 (PGT-137) (antibody), sequence (VH): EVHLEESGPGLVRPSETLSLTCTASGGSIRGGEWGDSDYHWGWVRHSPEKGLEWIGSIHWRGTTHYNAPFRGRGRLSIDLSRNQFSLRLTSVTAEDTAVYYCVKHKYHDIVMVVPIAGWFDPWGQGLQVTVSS
5345_I01 (PGT-137) (antibody), sequence (VL): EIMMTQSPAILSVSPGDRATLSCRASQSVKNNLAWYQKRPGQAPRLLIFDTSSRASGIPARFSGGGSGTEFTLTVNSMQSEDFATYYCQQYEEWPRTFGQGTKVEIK
4970_K22 (PGT-144) (antibody), sequence (VH): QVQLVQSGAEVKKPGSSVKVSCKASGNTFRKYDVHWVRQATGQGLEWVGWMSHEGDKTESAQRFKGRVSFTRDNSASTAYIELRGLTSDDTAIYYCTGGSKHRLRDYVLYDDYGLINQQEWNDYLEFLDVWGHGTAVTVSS
4970_K22 (PGT-144) (antibody), sequence (VL): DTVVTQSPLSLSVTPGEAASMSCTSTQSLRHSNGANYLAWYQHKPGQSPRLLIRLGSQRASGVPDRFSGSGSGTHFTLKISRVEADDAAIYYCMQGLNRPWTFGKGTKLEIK

5329_C19 (PGT-136) (antibody)
IC50 (µg/mL), pseudovirus neutralization [1]: > 50 µg/mL
IC50 (µg/mL), pseudovirus neutralization [2]: > 50 µg/mL
IC50 neutralization [3]: > 50 µg/mL
IC50 neutralization [4]: > 50 µg/mL
IC50 (µg/mL), pseudovirus neutralization [5]: > 50 µg/mL
IC50 (µg/mL), pseudovirus neutralization [6]: > 50 µg/mL
IC50 (µg/mL), pseudovirus neutralization [7]: > 50 µg/mL
IC50 (µg/mL), pseudovirus neutralization [8]: > 50 µg/mL
IC50, pseudovirus neutralization [9]: > 10 µg/mL
IC50 (µg/mL), pseudovirus neutralization [10]: > 50 µg/mL
IC50 (µg/mL), pseudovirus neutralization [11]: > 50 µg/mL
neutralization IC50 [12]: > 50 µg/mL
IC50 (µg/mL), pseudovirus neutralization [13]: > 50 µg/mL
IC50 neutralization [14]: > 50 µg/mL
IC50 neutralization [15]: > 50 µg/mL
IC50 [16]: > 50 µg/mL
IC50 (µg/mL), pseudovirus neutralization [17]: > 50 µg/mL
IC50 (µg/mL), pseudovirus neutralization [18]: 0.406 µg/mL
IC50 neutralization [19]: 27.7 µg/mL
IC50 (µg/mL), pseudovirus neutralization [20]: > 50 µg/mL
IC50 (µg/mL), pseudovirus neutralization [21]: > 50 µg/mL
IC50 [22]: > 50 µg/mL
IC50 (µg/mL), pseudovirus neutralization [23]: > 50 µg/mL
IC50 (µg/mL), pseudovirus neutralization [24]: > 50 µg/mL
IC50 neutralization [25]: > 50 µg/mL

5145_B14 (PGT-127) (antibody)
IC50 (µg/mL), pseudovirus neutralization [7]: 0.032 µg/mL
neutralization IC50 [26]: 7.57 µg/mL
IC50 (µg/mL), pseudovirus neutralization [27]: 0.164 µg/mL
IC50 (µg/mL), pseudovirus neutralization [28]: 0.371 µg/mL
IC50, pseudovirus neutralization [29]: 1.95 µg/mL
IC50, pseudovirus neutralization [30]: 2.23 µg/mL

5345_I01 (PGT-137) (antibody)
IC50 (µg/mL), pseudovirus neutralization [1]: > 50 µg/mL
IC50 (µg/mL), pseudovirus neutralization [2]: > 50 µg/mL
IC50 neutralization [3]: > 50 µg/mL
IC50 neutralization [4]: > 50 µg/mL
IC50 (µg/mL), pseudovirus neutralization [5]: > 50 µg/mL
IC50 (µg/mL), pseudovirus neutralization [6]: > 50 µg/mL
IC50 (µg/mL), pseudovirus neutralization [7]: > 50 µg/mL
IC50 (µg/mL), pseudovirus neutralization [8]: > 50 µg/mL
IC50 (µg/mL), pseudovirus neutralization [10]: > 50 µg/mL
IC50 (µg/mL), pseudovirus neutralization [11]: > 50 µg/mL
neutralization IC50 [12]: > 50 µg/mL
IC50 (µg/mL), pseudovirus neutralization [13]: 49.2 µg/mL
IC50 neutralization [14]: > 50 µg/mL
IC50 neutralization [15]: > 50 µg/mL
IC50 [16]: > 50 µg/mL
IC50 (µg/mL), pseudovirus neutralization [17]: > 50 µg/mL
IC50 (µg/mL), pseudovirus neutralization [18]: 1.22 µg/mL
IC50 neutralization [19]: 17.4 µg/mL
IC50 (µg/mL), pseudovirus neutralization [20]: > 50 µg/mL
IC50 (µg/mL), pseudovirus neutralization [21]: > 50 µg/mL
IC50 [22]: > 50 µg/mL
IC50 (µg/mL), pseudovirus neutralization [23]: > 50 µg/mL
IC50 (µg/mL), pseudovirus neutralization [24]: > 50 µg/mL
IC50 neutralization [25]: 32.9 µg/mL

4877_D15 (PGT-122) (antibody)
IC50 (µg/mL), pseudovirus neutralization [7]: 0.01 µg/mL
IC50, pseudovirus neutralization [9]: > 10 µg/mL
neutralization IC50 [26]: 2.22 µg/mL
IC50 (µg/mL), pseudovirus neutralization [27]: 0.689 µg/mL
IC50 (µg/mL), pseudovirus neutralization [28]: 0.011 µg/mL
IC50, pseudovirus neutralization [29]: 0.185 µg/mL
IC50, pseudovirus neutralization [30]: 1.13 µg/mL

4858_P08 (PGT-123) (antibody)
IC50 (µg/mL), pseudovirus neutralization [7]: 0.008 µg/mL
IC50, pseudovirus neutralization [9]: > 10 µg/mL
neutralization IC50 [31]: 0.0071 µg/mL
neutralization IC80 [31]: 0.0281 µg/mL
neutralization IC90 [31]: 0.0625 µg/mL
neutralization IC95 [31]: 0.131 µg/mL
neutralization IC50 [26]: 0.402 µg/mL
IC50 (µg/mL), pseudovirus neutralization [27]: 0.105 µg/mL
IC50 (µg/mL), pseudovirus neutralization [28]: 0.015 µg/mL
IC50, pseudovirus neutralization [29]: 0.023 µg/mL
IC50, pseudovirus neutralization [30]: 0.147 µg/mL

4838_L06 (PGT-121) (antibody)
IC50, pseudovirus neutralization [9]: > 10 µg/mL
neutralization IC50 [26]: 0.472 µg/mL
IC50 (µg/mL), pseudovirus neutralization [27]: 0.137 µg/mL
IC50 (µg/mL), pseudovirus neutralization [28]: 0.011 µg/mL
IC50, pseudovirus neutralization [29]: 0.038 µg/mL
IC50, pseudovirus neutralization [30]: 0.615 µg/mL

4980_N08 (PGT-143) (antibody)
IC50 (µg/mL), pseudovirus neutralization [1]: 0.003 µg/mL
IC50 (µg/mL), pseudovirus neutralization [32]: > 50 µg/mL
IC50 (µg/mL), pseudovirus neutralization [21]: > 50 µg/mL

4970_K22 (PGT-144) (antibody)
IC50 (µg/mL), pseudovirus neutralization [1]: 0.052 µg/mL
IC50 (µg/mL), pseudovirus neutralization [32]: > 50 µg/mL
IC50 (µg/mL), pseudovirus neutralization [21]: > 50 µg/mL
